The results in this text go back to PMC5225881, “Open and compressed conformations of Francisella tularensis ClpP” (Proteins, 2016).

Values joined by “and” are separate entries in the source; they are usually repeats but may differ in a detail not shown here. Identical values can stand only once.

The data set deals with the molecule itself. Put plainly: native gel or EMSA; purified sample applied to a native gel; conditions not given.

B1: Francisella tularensis caseinolytic protease catalytic subunit P (ClpP) (enzyme)
chain: not shown
notes: also called FtClpP; FtClpP:I; copies: 14
For orientation: stoichiometry N means a count of units in the complex or per binding partner. As for B1, the “stoichiometry N” value was 7 and 14.
